{"source": "paper PMC8142254", "about": "“The mycobacterial proteasomal ATPase Mpa forms a gapped ring to engage the 20S proteasome” (The Journal of Biological Chemistry, 2021)", "binders": {"B1": {"name": "Mycobacterium tuberculosis proteasomal ATPase Mpa, full-length (1–609) (enzyme)", "chain": "MGESERSEAFGIPRDSPLSSGDAAELEQLRREAAVLREQLENAVGSHAPTRSARDIHQLEARIDSLAARNSKLMETLKEARQQLLALREEVDRLGQPPSGYGVLLATHDDDTVDVFTSGRKMRLTCSPNIDAASLKKGQTVRLNEALTVVEAGTFEAVGEISTLREILADGHRALVVGHADEERVVWLADPLIAEDLPDGLPEALNDDTRPRKLRPGDSLLVDTKAGYAFERIPKAEVEDLVLEEVPDVSYADIGGLSRQIEQIRDAVELPFLHKELYREYSLRPPKGVLLYGPPGCGKTLIAKAVANSLAKKMAEVRGDDAHEAKSYFLNIKGPELLNKFVGETERHIRLIFQRAREKASEGTPVIVFFDEMDSIFRTRGTGVSSDVETTVVPQLLSEIDGVEGLENVIVIGASNREDMIDPAILRPGRLDVKIKIERPDAEAAQDIYSKYLTEFLPVHADDLAEFDGDRSACIKAMIEKVVDRMYAEIDDNRFLEVTYANGDKEVMYFKDFNSGAMIQNVVDRAKKNAIKSVLETGQPGLRIQHLLDSIVDEFAENEDLPNTTNPDDWARISGKKGERIVYIRTLVTGKSSSASRAIDTESNLGQYL", "notes": "Mpa (mycobacterial proteasome ATPase), Mycobacterium tuberculosis, full-length, residues 1-609; Homohexamer; In the cryo-EM model the coiled-coil domains and two of the six AAA domains are not resolved; also called mycobacterial proteasome ATPase; WT Mpa"}}, "key": {"[1]": {"target": "Mycobacterium tuberculosis open-gate 20S proteasome core particle (20SOG CP) (Mycobacterium tuberculosis) (UniProt P9WHU1)", "sequence (P9WHU1 whole entry, chain 1 of 2)": "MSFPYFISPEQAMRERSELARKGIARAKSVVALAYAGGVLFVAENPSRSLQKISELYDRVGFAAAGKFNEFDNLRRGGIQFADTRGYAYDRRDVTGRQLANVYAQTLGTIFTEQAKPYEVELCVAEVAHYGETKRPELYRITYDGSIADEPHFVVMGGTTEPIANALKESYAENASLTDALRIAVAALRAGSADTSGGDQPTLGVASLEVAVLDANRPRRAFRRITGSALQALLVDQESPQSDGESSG", "sequence (P9WHT9 58-291, chain 2 of 2, further chain)": "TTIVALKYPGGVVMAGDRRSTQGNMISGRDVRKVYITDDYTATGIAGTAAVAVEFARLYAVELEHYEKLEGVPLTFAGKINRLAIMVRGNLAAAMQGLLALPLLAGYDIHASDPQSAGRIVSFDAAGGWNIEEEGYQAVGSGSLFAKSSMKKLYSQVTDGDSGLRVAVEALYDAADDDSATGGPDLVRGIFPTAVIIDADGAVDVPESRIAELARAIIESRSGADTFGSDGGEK", "assay": "negative-stain EM; 2 M equivalents of Mpa hexamer, 3 M equivalents of Pup and 1 M equivalent of 20SOG CP with 3 mM ADP on ice for 40 min; 2D class averages of side views, capped versus uncapped CPs counted"}, "[2]": {"target": "Mycobacterium tuberculosis open-gate 20S proteasome core particle (20SOG CP) (Mycobacterium tuberculosis) (UniProt P9WHU1)", "assay": "negative-stain EM; 2 M equivalents of Mpa hexamer, 3 M equivalents of Pup and 1 M equivalent of 20SOG CP with 3 mM ATP on ice for 40 min; 2D class averages of side views, capped versus uncapped CPs counted"}}}
{"binder": "B1", "values": [{"measurement": "percent of 20SOG CPs bound to Mpa hexamer", "setting": "[1]", "result": 8, "unit": "%"}, {"measurement": "percent of 20SOG CPs bound to Mpa hexamer", "setting": "[2]", "result": 37, "unit": "%"}]}
